Laboratory results: publication PMC7116892 (Science (New York, N.Y.), 2021)

Legend:
[1] = target: T1, Dyh3 (α-HC), ODA heavy chain (Tetrahymena thermophila, UniProt Q22A67 1-4620); test: cryo-EM structure
[2] = target: T2, Dyh5 (γ-HC), ODA heavy chain (Tetrahymena thermophila, UniProt I7M6H4 1-4168); test: cryo-EM structure
[3] = target: T1, Dyh3 (α-HC), ODA heavy chain; test: cross-linking
[4] = target: T2, Dyh5 (γ-HC), ODA heavy chain; test: cross-linking

| binding result [1] | binding result [2] | binding result [3] | binding result [4] | Binder |
| --- | --- | --- | --- | --- |
| binds | binds |  |  | Shulin (Q22YU3), recombinant full-length, C-terminal 2xStrep (natural protein, Tetrahymena thermophila, UniProt Q22YU3 1-1200, looked up) MFNFFSSANINQNIPKYSVNDFVFRLKKIEKIVVKEGLDGFLLINGVDSRENTEYVKLTNWLFLGNSGLEIEENEYLNQIYSDMIVLIKKGTTHIFIDPEALNSLQTLIYSIPNVDVFCPTEKQYEDKDEMELLKMAFFLRVMKPTKKVGILLGQKDKGKINSIEKWPLIQSYGLEELGVGFFSMNHEVVDLTLRLNAVYKNYDKFFVSKLIYVVAKRLTGHFNSAAGQLGDMKMHKRNLATESQLTEIFRDTYEIEEISKWVQIRGVNAALPKPRVLFGKNTSADCSKEPSVAPLKDLKYSETFHSFHATFETFDLRTCLRAARTYFLAKGVKEERNLITLNDDEGVPQGYELNIDENQQYKDQDFLANLYLSIIIGFNEVMQLITKDYKNMTEEFIQDYIFQKVSKVYAGFQIPESEITLDKIQIILKAYNSFGEEVKIDFKDTISFKLTPYFFMVRIEQKNIKSQILNNTVLGSLVFAESFILQEGCYLLLTKEIPYFDLWNCQNDYSEKIEKMKKRILWEPLGKQISDELPKNRIFVQTGRKSNYGFDIPIMQASYYMHELGLRIETQRLGWFILFFKEMKEIQITQKMNHTWLIFKVDSNITFNSISKDTIALEFTGDALEQSFFKIKNYFEENQIKYEYQVDIPAIFQESQIAKKQILNQQSQGQKLITMNSIQNEQFFISYIESKQLMILNQMKDLKLSAYKNLYEQMQISQAITPVENHIGVILVNGSYCSGKRKFAENLIRFGSDNNLRLHLYKFDLNEMSELTEKSYLSGLLKFASEKKIQNTDVIVASVPHFINTKILIDYFSKSEKISNAFYIRTIATKININNIYSNFNKNPVNNVFTYGVEGYSQFLLLDTYNNYDADVNALNKTLSGVLPGAKIYKIMNNILNPALAKDILTSITFISEQNNLNRLKYSVQYDLLTSNGPSSVVFIPFKLPILREKIRDLIYKKILQNGNQTLVDTIEAEQKIAEFKELNKNSKDPLMIEIIKLKEKIEIQNAQTSDQAIKIDYVKGILRYDSKLKEGLEEITITPNYFIERTVKGVDAKEFTEELNGVSFKNVKYTGITNSIINDMGFVFAGKNLNKEKLLELLYKLVKPLNKQKLRQRKDLTEEEIVDIQFRNRGEGLENGEFYDGQFWRNIQGLILPHHPKKDEFIEEYLKQEEVRINQINEQLQQEWETWKQVYDKIHLDK |
|  |  | binds | binds | Q22MS1, recombinant, C-terminal 2xStrep (natural protein, Tetrahymena thermophila, UniProt Q22MS1 1-1892, looked up) MFQSYLQDIEKENNSSIYNAQAQQNSSTQQSIWDDYIDRQLEHLVVEYQFDFDKIAQRLAGVIGDKQQQKVNFDTCRQRWKQLHLRRYEDKDKDRLDRVSKSVMKMEDPNNALKVQELVEKLPKARQNKDFLKISDEEKLQAFYLNDKGEKIQPTTFNVLKDSVMGIKDKTERERVFKKQQEEFFKSLEKLAGEQDEDMFTKPLIFRAKFTEPTNFNFIVEREELTREQAQRIMSQKVQIKGAGLVPPEPEMGIKMDNYVSMFARPDEEEEELKKKDQEKEVQVNQQIMQDQQETKEEQERDQEELKKQMELTEEEKKKQQEQEEEKKKINVDLYLAERGLKSIDEALNSLEKMRSKVKVNNYFEEAQTEDKKLKEQKEKNQQKVDNEDQIRQEIIKQGLEQLKQKEQGDQLVQFHENQIKKDIKELNEIIGDNKSKNVKNQTQQPNKAVEEEEEIILEKKNDQSKKVPTKKGIFSQFAEEEDSGSEDEVGNDEEELDDELYLQAQRIGLKSDAEIDLFITKKKEERKANMLNKKKVQFSEFSEQKQISEDTDELLAKQEKQIKQKQQFLEKLKKKSENEAGENDESNQEGSQNWRDLEFSAGMAFKRQLEEEKMQRMIKEQFEEEQRRKADQERIRQIQEEYHLKKLDIETKIKLREPLNLEKVNQEKWKEYIEAQQKRREEIEKEFEEKQRIQTEQEEKEQKENLIKEKIHFFEQKIKNFPSNDPFKCFFDDQVSYLSQISSLPSKITTKIADLKKYDISRDGITSRYQILIFPYLDKCQEFVFQFLSFFLRNSFFRQPPSEKELGEIVSENPLDEIPCQRLSSKGFPFCLVSFYIGSHTSEINDEQDEQYLSNYLNDAIKFDKLINDDKLQKSIYLFFDTYIGRGQDTLSKQLDLALTEFLSDGCLDQAIRKYGEKVINRDMKLSDFKTAYYKNMEIAKKLFNESNTFHSICPTKTSYHQTNQLAIHQNKKKQLLPTSPSNSPSIISHSHGNKWETSVIIIRNYSEIQNPSALRQQQNRGVDFSNASDLMQQDVTTEQYSNLSESLSNLVPSHTEISQRQKQQMTDVIHYTLNKLQEKGIQILGMKSFFFDQKTVQEFKSYVENINFNTNTNQPIVVISVAGFDLHSKLKKMVGSEDAQLAKRVEPNSLNALFSTGRDDSIIIPYNKALSRRLISYFFCGRLEKIQTVQDIQVIEGLTNKKQLYLTKPKPFNPVFLLNSQPIREHICLLSSKFLPQQFCEVIRKIQARGFELLNIRVIDSSNLSAILKKDEDFSAFIENENLQELNSGENDYERINLVLHIQGANISSLRNTLLNKIIDYNPFLHPSKREIFYYTKDDLSLTLLKDIFFNRHIKSNFTPSERFPLFIALWPFLNDYEEKEGLTASQAVPLGNDLKIMSSYGLELLSVSKIFKSQIQQKLNTSIEEETEHVDLKSILHQLIQNNIQINSITKKKPEFSTFCSRLGEEILSQDFYLAVFRYQGDRQSKHLDKLFTEVPFVHSNKTINESTVVTHGAKQTPHTQAKPLPTEFLTLFFLDSSAQQVSNFTKLLGIGAFDDWSFKGSFIFDLPSSGYTGEIETLIILSEDVVKTLLLVGLVKIIENNQFKIKSFFKHRCSREFSEVIQENLLQAFSGYESQMHDQGTKLQKIKASLDNLMTRLQGESMYFLVLSKENGIFNGKKILFELAEKYSVFKKETINVESSTEYMLDKGMYCSLNYKCQQREFKELQFMSQQILSMAHENNQEQQDVDKMYDNQLVMVIRIDQQIQLYEVFRKLQSDLKFKIIHFLVMRQFEWTDIQYISSHFTPKFEAQHIQKYFEINNDGIYCIVHLDSKNSVSLSDAFGTLRLNEKGEFKQVIRSSLFGKQEVFFIYTNNPQHVKKLSAYAFKSSE |
